The target in experiment [1] is His-NtCDC48 recombinant protein (Nicotiana tabacum). As to the kind of experiment: SDS-PAGE and immunoblot. On the technique in general: A western blot detects proteins with antibodies after separation by electrophoresis.
In experiment [2] the target is NtCDC48, endogenous (Nicotiana tabacum (endogenous in cv. Xanthi cell suspensions)). As to the kind of experiment: SDS-PAGE and immunoblot.
For experiment [3], the target named is CFP-NtCDC48 (Nicotiana tabacum). Nature of the experiment: FRET or BRET.
Experiment [4] has as its target cytosolic ascorbate peroxidase (cAPX), endogenous (Nicotiana tabacum (endogenous in cv. Xanthi cell suspensions)). Nature of the experiment: native gel or EMSA. (In EMSA bound probe runs differently from free probe, usually more slowly.)

As a reminder, the stoichiometry N is the number of molecules, sites or subunits per partner or assembly. Consider “His-NtCDC48 recombinant protein (natural protein)”, for which the stoichiometry N in experiment [1] is 6.
For the substance NtCDC48, endogenous (natural protein), the stoichiometry N in experiment [2] was determined as 6.
Turning to cAPX-YFP (enzyme), the CFP donor fluorescence lifetime with the acceptor (2.97 ns for the donor alone) in experiment [3] came to 2.41 ns.
With “cytosolic ascorbate peroxidase (cAPX), endogenous (enzyme)”, the stoichiometry N in experiment [4] came to 2.

These data come from article PMC6506776.
